Measured values from PMC2766623, “The Vitamin B1 Metabolism of Staphylococcus aureus Is Controlled at Enzymatic and Transcriptional Levels” (PLoS ONE, 2009).
Each block holds one molecule with its values, some of them ahead of it.

Legend:
[1] = biological target: S. aureus thiaminase type II (SaTenA) (Staphylococcus aureus ATCC25923); assay: SEC-MALS; Superdex 200 10/30 size exclusion column followed by static light scattering (miniDAWN Tristar); 100 mM Tris-HCl buffer, pH 8, 150 mM NaCl; affinity purified proteins
[2] = biological target: T1, SaGTPase (Staphylococcus aureus, UniProt P67682); assay: phosphate release, malachite green; assay type: biochemical; conditions: 1 mM substrate, 1 mM MgCl2, 100 mM MOPS pH 7.5, 37°C
T1 construct: gene rsgA; monomer; gtpase-epi-tpk operon
T1 sequence (P67682 1-291): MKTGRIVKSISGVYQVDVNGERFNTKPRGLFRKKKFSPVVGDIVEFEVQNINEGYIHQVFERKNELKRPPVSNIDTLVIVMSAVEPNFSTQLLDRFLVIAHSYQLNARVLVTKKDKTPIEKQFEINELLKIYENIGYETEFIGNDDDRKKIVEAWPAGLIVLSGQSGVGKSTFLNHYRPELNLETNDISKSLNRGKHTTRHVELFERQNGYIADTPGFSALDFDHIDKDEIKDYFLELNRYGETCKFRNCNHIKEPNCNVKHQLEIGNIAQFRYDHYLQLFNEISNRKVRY

[3] = biological target: S. aureus 5-(2-hydroxyethyl)-4-methylthiazole (THZ) kinase (SaThiM) (Staphylococcus aureus ATCC25923); assay: SEC-MALS; Superdex 200 10/30 size exclusion column followed by static light scattering (miniDAWN Tristar); 100 mM Tris-HCl buffer, pH 8, 150 mM NaCl; affinity purified proteins
[4] = biological target: S. aureus 4-amino-5-hydroxymethyl-2-methylpyrimidine (HMP) kinase (SaThiD) (Staphylococcus aureus ATCC25923); assay: as above
[5] = substrate: Cc1ncc(C[n+]2csc(CCO)c2C)c(N)n1; assay: thiamine hydrolysis, products HMP/THZ measured by radiometric kinase assay, TLC, Lineweaver-Burk; assay type: biochemical, Staphylococcus aureus; conditions: 100 mM Tris-HCl pH 7.5, 37°C, no nucleophile needed
From the text: thiamine hydrolysis, products HMP/THZ measured by radiometric kinase assay, TLC, Lineweaver-Burk on SaTenA

[6] = substrate: Cc1ncc(COP(=O)(O)OP(=O)(O)O)c(N)n1; assay: purified protein; assay type: biochemical, Staphylococcus aureus; conditions: co-substrate THZ-[33P] (THZ phosphate), 37°C
[7] = substrate: Cc1ncc(CO)c(N)n1; assay: radiometric [gamma-33P]-ATP phosphorylation, TLC, Lineweaver-Burk; assay type: biochemical, Staphylococcus aureus; conditions: 1 mM ATP, 2 mM MgCl2, 100 mM potassium phosphate pH 7.5, 37°C
From the text: radiometric [gamma-33P]-ATP phosphorylation, TLC, Lineweaver-Burk on SaThiD

[8] = substrate: Cc1ncc(C[n+]2csc(CCO)c2C)c(N)n1; assay: purified protein; assay type: biochemical, Staphylococcus aureus; conditions: 2 mM ATP, 4 mM MnCl2, 100 mM Tris-HCl pH 8.5, 37°C

stoichiometry N [1]: 3
Molecule: S. aureus thiaminase type II (SaTenA) (enzyme)

Molecule: Nc1nc2c(ncn2[C@@H]2O[C@H](COP(=O)(O)OP(=O)(O)OP(=O)(O)O)[C@@H](O)[C@H]2O)c(=O)[nH]1 [GTP]
phosphate release, malachite green [2]: the S. aureus GTPase is not restricted to GTP and exhibits a broad substrate spectrum

stoichiometry N [3]: 2
Molecule: S. aureus 5-(2-hydroxyethyl)-4-methylthiazole (THZ) kinase (SaThiM) (enzyme)

stoichiometry N [4]: 2
Molecule: S. aureus 4-amino-5-hydroxymethyl-2-methylpyrimidine (HMP) kinase (SaThiD) (enzyme)

B1: SaTenA (Staphylococcus aureus subsp. aureus NCTC 8325) (protein)
chain: MEFSQKLYQAAKPIINDIYEDDFIQKMLSGDIGADALRHYLKADAAYLKEFTNLYALLIPKMNSMNDVKFLVEQIEFMVEGEVLAHDILAQIVGESYEEIIKTKVWPPSGDHYIKHMYFQAHSRENAIYTIAAMAPCPYIYAELAKRSQSDHKLNREKDTAKWFDFYSTEMDDIINVFEAIMNKLAESMSDKELEQVKQVFLESCIHERRFFNMAMTLEQWEFGGKVND
notes: trimer by SLS
Km [5]: 256 ± 44 µM
kcat [5]: 0.0017 ± 0.00033 s⁻¹

B2: SaThiE (Staphylococcus aureus subsp. aureus NCTC 8325) (protein)
chain: MFNQSYLNVYFICGTSDVPSHRTIHEVLEAALKAGITLFQFREKGESALKGNDKLVLAKELQHLCHQYDVPFIVNDDVSLAKEINADGIHVGQDDAKVKEIAQYFTDKIIGLSISDLDEYAKSDLTHVDYIGVGPIYPTPSKHDAHIPVGPEMIATFKEMNPQLPIVAIGGINTNNVAPIVEAGANGISVISAISKSENIEKTVNRFKDFFNN
notes: low yield, three bands on SDS-PAGE
Km [6]: 145 ± 36 µM

B3: SaThiD (Staphylococcus aureus subsp. aureus N315) (protein)
chain: MIKPKIALTIAGTDPTGGAGVMADLKSFHSCGVYGMGVVTSIVAQNTLGVQHIHNLNHQWVDEQLDSVFNDTLPHAIKTGMIATADTMETIRHYLMQHESIPYVIDPVMLAKSGDSLMDNDTKQNLQHTLLPLADVVTPNLPEAEEITGLTIDSEEKIMQAGRIFINEIGSKGIIIKGGHSNDTDIAKDYLFTNEGVQTFENERFKTKHTHGTGCTFSAVITAELAKGRPLFEAVHKAKKFISMSIQYTPEIGRGRGPVNHFAYLKKEGLDDELSK
notes: dimer; 831 bp ORF in tenA-thiM-thiD-thiE operon
Km [7]: 635 ± 20 µM
kcat [7]: 0.012 ± 0.00083 s⁻¹

B4: SaTPK (Staphylococcus aureus subsp. aureus NCTC 8325) (protein)
chain: MHINLLCSDRHLPQDIWAKSNEGKWGGVDRGALILLKHQIIPFFSVGDFDSVSKEERQLLTEQLQIKPVQAEKADTDLALAVDKAVALGFDSITIYGATGGRLDHFFGAIQLLLKKAYYKHDVHIEVIDQQNKIELLPKGQHTVEKDKSYPYISFIPMTDDVELSLAGFKYNLARQMLNIGSTLTISNEIESLQAKVTVHDGLILQIRSTDLN
notes: monomer; gtpase-epi-tpk operon
Km [8]: 394 ± 74 µM
kcat [8]: 0.0083 ± 0.0012 s⁻¹
